Several values for one entry are separate records, joined by “and”; a condition that tells them apart may be missing. Equal values may be shown once. Read-outs that look alike come from different tables or passages of the source.
How the values were obtained:
[1] = molecular target: T1, tumor necrosis factor alpha (TNFα) (human, UniProt P01375 77-233); experiment: cell-based or functional assay
[2] = molecular target: T1, tumor necrosis factor alpha (TNFα); experiment: affinity by IC50 ELISA (so named in paragraph 380)
[3] = molecular target: T1, tumor necrosis factor alpha (TNFα); experiment: affinity by IC50 ELISA (so named in paragraph 380); remark: listed apart in the source
[4] = molecular target: T1, tumor necrosis factor alpha (TNFα); experiment: affinity by IC50 ELISA (so named in paragraph 380); remark: listed apart in the source
[5] = molecular target: T1, tumor necrosis factor alpha (TNFα); experiment: affinity by IC50 ELISA (so named in paragraph 380); remark: listed apart in the source
[6] = molecular target: T1, tumor necrosis factor alpha (TNFα); experiment: affinity by IC50 ELISA (so named in paragraph 380); remark: listed apart in the source

T1 sequence (P01375 77-233 limits assumed): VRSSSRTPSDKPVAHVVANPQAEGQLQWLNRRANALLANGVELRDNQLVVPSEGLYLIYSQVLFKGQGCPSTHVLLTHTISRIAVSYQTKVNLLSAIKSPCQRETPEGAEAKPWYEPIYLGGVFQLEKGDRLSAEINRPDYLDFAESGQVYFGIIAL

Row | Binder | IC50, TNFα cytotoxicity assay (WEHI-13VAR cells) [1] | Affinity [2] [nM] | Affinity [3] [nM] | Affinity [4] [nM] | Affinity [5] [nM] | Affinity [6] [nM]
1 | MAb 695 (antibody, V domains shown, also called 121 D11; H1192/L250) VH: EVQLLESGGGLIQPGGSLRLSCAASGFTVSSNYMSWVRQAPGKGLEWVSVIYSGGRTYYADSVKGRFTISRDSSKNTLYLQMNSLRAEDTAVYYCARNYYGSTYDYWGQGTLVTVSS VL: EIVLTQSPVTLSVPPGERASLSCRASQNIYTAVAWYQQKPGQAPRLLIYGASTRATGIPARFSGGGSGTDYTLTISSLESEDFAVYHCQQYHSWPLTFGGGTKLEIK | 22.9 nM | 0.6 | 0.6 |  |  | 
2 | MAb 714 (antibody, V domains shown, also called 141 A10; H1277/L250) VH: EVQLVESGGGLVQPGGSLKLSCAASGFTVSSNYMSWVRQAPGKGLEWVSVIYRGGSTYYADSVKGRFTISRDISRNMVYLQMNSLRAEDTAVYYCARNYYGSTYDYWGQGTLVTVSS VL: EIVLTQSPVTLSVPPGERASLSCRASQNIYTAVAWYQQKPGQAPRLLIYGASTRATGIPARFSGGGSGTDYTLTISSLESEDFAVYHCQQYHSWPLTFGGGTKLEIK | 7.75 nM | 0.4 | 0.4 |  |  | 
3 | MAb 1042 (antibody, V domains shown, IgG1/kappa, CHO; also called H1482/L332) VH: EVQLLESGGGLIQPGGSLRLSCAASGFTVSSNYMSWVRQAPGKGLEWVSVIYSGGRTYYADSVKGRFTISRDSSKNTLYLQMNSLRAEDTAVYYCARNYYGSTFDYWGQGTLVTVSS VL: EIVLTQSPVTLSVPPGERASLSCRASQNIYTAVAWYQQKPGQAPRLLIYGASTRATGIPARFSGGGSGTDYTLTISSLESEDFAVYHCQQWHSWPLTFGGGTKLEIK |  |  |  | 0.07 | 0.07 | 
4 | MAb 1029 (antibody, V domains shown, IgG1/kappa, CHO; also called H1479/L250) VH: EVQLLESGGGLIQPGGSLRLSCAASGFTVSSNYMSWVRQAPGKGLEWVSVIYSGGRTYYADSVKGRFTISRDSSKNTLYLQMNSLRAEDTAVYYCARLYYGSTYDYWGQGTLVTVSS VL: EIVLTQSPVTLSVPPGERASLSCRASQNIYTAVAWYQQKPGQAPRLLIYGASTRATGIPARFSGGGSGTDYTLTISSLESEDFAVYHCQQYHSWPLTFGGGTKLEIK |  |  |  | 0.36 |  | 0.36
5 | MAb 696 (antibody, V domains shown, also called 121 E1B; H1193/L250) VH: EVQLVESGGGLIQPGGSLRLSCAASGFTVSSNYMSWVRQAPGKGLEWVSVIYSGGRTYYADSVKGRFTISRDSSKNTLYLQMNSLRAEDTAVYYCARNYYGSTYDYWGQGTLVTVSS VL: EIVLTQSPVTLSVPPGERASLSCRASQNIYTAVAWYQQKPGQAPRLLIYGASTRATGIPARFSGGGSGTDYTLTISSLESEDFAVYHCQQYHSWPLTFGGGTKLEIK |  | 0.6 | 0.6 |  |  | 
6 | MAb 1036 (antibody, V domains shown, IgG1/kappa, CHO; also called H1478/L332) VH: EVQLLESGGGLIQPGGSLRLSCAASGFTVSSNYMSWVRQAPGKGLEWVSVIYSGGRTYYADSVKGRFTISRDSSKNTLYLQMNSLRAEDTAVYYCARTYYGSTYDYWGQGTLVTVSS VL: EIVLTQSPVTLSVPPGERASLSCRASQNIYTAVAWYQQKPGQAPRLLIYGASTRATGIPARFSGGGSGTDYTLTISSLESEDFAVYHCQQWHSWPLTFGGGTKLEIK |  |  |  | 0.18 | 0.18 | 
7 | MAb 1066 (antibody, V domains shown, IgG1/kappa, CHO; also called H1487/L250) VH: EVQLLESGGGLIQPGGSLRLSCAASGFTVSSNYMSWVRQAPGKGLEWVSVIYSGGRTYYADSVKGRFTISRDSSKNTLYLQMNSLRAEDTAVYYCARNYYGSTLDYWGQGTLVTVSS VL: EIVLTQSPVTLSVPPGERASLSCRASQNIYTAVAWYQQKPGQAPRLLIYGASTRATGIPARFSGGGSGTDYTLTISSLESEDFAVYHCQQYHSWPLTFGGGTKLEIK |  |  |  | 0.13 |  | 0.13
8 | MAb 716 (antibody, V domains shown, also called 142 F2; H1280/L250) VH: EVQLLESGGGLIQPGGSLRLSCAASGFTVSSNYMSWVRQAPGKGLEWVSVIYSGGSTYYADSVKGRFTISRDNSKNTLYLQMNSLRAEDTAVYYCARNYYGSTYDYWGQGTLVTVSS VL: EIVLTQSPVTLSVPPGERASLSCRASQNIYTAVAWYQQKPGQAPRLLIYGASTRATGIPARFSGGGSGTDYTLTISSLESEDFAVYHCQQYHSWPLTFGGGTKLEIK | 31.4 nM | > 10 | > 10 |  |  | 
9 | MAb 715 (antibody, V domains shown, also called 141 F2; H1278/L250) VH: EVQLLESGGGLIQPGGSLRLSCAASGFTVSNNYMSWVRQAPGKGLQWVAVIYSGGSTYYPDSMKGRFTISRDNSKNTLYLQMNSLRAEDTAVYYCARNYYGSTYDYWGQGTLVTVSS VL: EIVLTQSPVTLSVPPGERASLSCRASQNIYTAVAWYQQKPGQAPRLLIYGASTRATGIPARFSGGGSGTDYTLTISSLESEDFAVYHCQQYHSWPLTFGGGTKLEIK | 21.4 nM | 0.6 | 0.6 |  |  | 
10 | MAb 1037 (antibody, V domains shown, IgG1/kappa, CHO; also called H1482/L250) VH: EVQLLESGGGLIQPGGSLRLSCAASGFTVSSNYMSWVRQAPGKGLEWVSVIYSGGRTYYADSVKGRFTISRDSSKNTLYLQMNSLRAEDTAVYYCARNYYGSTFDYWGQGTLVTVSS VL: EIVLTQSPVTLSVPPGERASLSCRASQNIYTAVAWYQQKPGQAPRLLIYGASTRATGIPARFSGGGSGTDYTLTISSLESEDFAVYHCQQYHSWPLTFGGGTKLEIK |  |  |  | 0.12 |  | 0.12
11 | MAb 1007 (antibody, V domains shown) VH: EVQLVESGGGLIQPGGSLRLSCAVSGLNVSRDYMSWVRQAPGKGLEWISVIYRGGATMYADSVKGRFTISRDTSKNTVFLQMSRLKVADTAVYYCARNYYGSTYDYWGQGTLVTVSS VL: EIVLTQSPVTLSVPPGERASLSCRASQNIYTAVAWYQQKPGQAPRLLIYGASTRATGIPARFSGGGSGTDYTLTISSLESEDFAVYHCQQWHSWPLTFGGGTKLEIK | 12.2 nM |  |  |  |  | 
12 | MAb 1028 (antibody, V domains shown, IgG1/kappa, CHO; also called H1478/L250) VH: EVQLLESGGGLIQPGGSLRLSCAASGFTVSSNYMSWVRQAPGKGLEWVSVIYSGGRTYYADSVKGRFTISRDSSKNTLYLQMNSLRAEDTAVYYCARTYYGSTYDYWGQGTLVTVSS VL: EIVLTQSPVTLSVPPGERASLSCRASQNIYTAVAWYQQKPGQAPRLLIYGASTRATGIPARFSGGGSGTDYTLTISSLESEDFAVYHCQQYHSWPLTFGGGTKLEIK |  |  |  | 0.32 |  | 0.32
13 | MAb 1038 (antibody, V domains shown, IgG1/kappa, CHO; also called H1483/L250) VH: EVQLLESGGGLIQPGGSLRLSCAASGFTVSSNYMSWVRQAPGKGLEWVSVIYSGGRTYYADSVKGRFTISRDSSKNTLYLQMNSLRAEDTAVYYCARNYYGSTMDYWGQGTLVTVSS VL: EIVLTQSPVTLSVPPGERASLSCRASQNIYTAVAWYQQKPGQAPRLLIYGASTRATGIPARFSGGGSGTDYTLTISSLESEDFAVYHCQQYHSWPLTFGGGTKLEIK |  |  |  | 0.25 |  | 0.25
14 | MAb 699 (antibody, V domains shown, also called 183 E9; H1273/L250) VH: EVQLLESGGGLIQPGGSLRLSCAASGFTVSSNYMSWVRQAPGKGLEWVSVIYSGGSTYYADSVKGRFTISRDNAKNTVYLQMNSLRSEDTAVYYCARNYYGSTYDYWGQGTLVTVSS VL: EIVLTQSPVTLSVPPGERASLSCRASQNIYTAVAWYQQKPGQAPRLLIYGASTRATGIPARFSGGGSGTDYTLTISSLESEDFAVYHCQQYHSWPLTFGGGTKLEIK | 350 nM | 7.3 | 7.3 |  |  | 
15 | MAb 698 (antibody, V domains shown, also called 131 E11; H1272/L250) VH: EVQLLESGGGLIQPGGSLRLSCAASGFTVGNNYMSWVRQAPGKGLEWVSVIYSAGSTYYADSVKGRFIISRDNSKDTVYLQMNSLRVDDTAVYYCARNYYGSTYDYWGQGTLVTVSS VL: EIVLTQSPVTLSVPPGERASLSCRASQNIYTAVAWYQQKPGQAPRLLIYGASTRATGIPARFSGGGSGTDYTLTISSLESEDFAVYHCQQYHSWPLTFGGGTKLEIK | 152 nM | 2.3 | 2.3 |  |  | 
16 | MAb 805 (antibody, V domains shown, also called 156 H7; H1329/L250) VH: EVQLVESGGGLIQPGGSLRLSCAVSGLNVSRDYMSWVRQAPGKGLEWISVIYRGGATMYADSVKGRFTISRDTSKNTVFLQMSRLKVADTAVYYCARNYYGSTYDYWGQGTLVTVSS VL: EIVLTQSPVTLSVPPGERASLSCRASQNIYTAVAWYQQKPGQAPRLLIYGASTRATGIPARFSGGGSGTDYTLTISSLESEDFAVYHCQQYHSWPLTFGGGTKLEIK | 4.8 nM and 10.3 nM | 0.6 | 0.6 |  |  | 
17 | MAb 892 (antibody, V domains shown, IgG1/kappa, CHO; also called H1388/L250) VH: EVQLLESGGGLIQPGGSLRLSCAASGFTVSSNYMSWVRQAPGKGLEWVSVIYSGGRTYYADSVKGRFTISRDSSKNTLYLQMNSLRAEDTAVYYCARNYYGSLYDYWGQGTLVTVSS VL: EIVLTQSPVTLSVPPGERASLSCRASQNIYTAVAWYQQKPGQAPRLLIYGASTRATGIPARFSGGGSGTDYTLTISSLESEDFAVYHCQQYHSWPLTFGGGTKLEIK |  |  |  | 0.43 |  | 0.43
18 | MAb 1132 (antibody, V domains shown, IgG1/kappa, CHO; also called H1518/L250) VH: EVQLLESGGGLIQPGGSLRLSCAASGFTVSSNYMSWVRQAPGKGLEWVSVIYSGGRTYYADSVKGRFTISRDSSKNTLYLQMNSLRAEDTAVYYCARNYYGSTHDYWGQGTLVTVSS VL: EIVLTQSPVTLSVPPGERASLSCRASQNIYTAVAWYQQKPGQAPRLLIYGASTRATGIPARFSGGGSGTDYTLTISSLESEDFAVYHCQQYHSWPLTFGGGTKLEIK |  |  |  | 0.1 |  | 0.1
19 | MAb 874 (antibody, V domains shown, IgG1/kappa, CHO; also called H1373/L250) VH: EVQLLESGGGLIQPGGSLRLSCAASGFTVSSNYMSWVRQAPGKGLEWVSVIYSGGRTYYADSVKGRFTISRDSSKNTLYLQMNSLRAEDTAVYYCARNYAGSTYDYWGQGTLVTVSS VL: EIVLTQSPVTLSVPPGERASLSCRASQNIYTAVAWYQQKPGQAPRLLIYGASTRATGIPARFSGGGSGTDYTLTISSLESEDFAVYHCQQYHSWPLTFGGGTKLEIK |  |  |  | 0.56 |  | 0.56
